Reference: patent publication US20210277441A1, “METHOD OF SELECTING A POLYPEPTIDE OF INTEREST” (IMPERIAL COLLEGE INNOVATIONS LIMITED, priority 2018, published 2021)

Columns and labels:
[1] = test system: O=C(O)c1ccccc1[N+](=O)[O-]; experiment: purified protein, by the assay type; conditions: other: cofactor NADH; enzyme 1 uM
O=[N+]([O-])c1ccc(CO)cc1 = experiment: purified protein, by the assay type; conditions: other: cofactor NADH; enzyme 1 uM

Substance	Km [1] [mM]	Km (O=[N+]([O-])c1ccc(CO)cc1) [mM mM]	kcat (O=[N+]([O-])c1ccc(CO)cc1) [min-1 min-1]
Enterobacter cloacae nitroreductase (EntNFSB) variant EntNFSB-s1, S40A/T41I/F124A, SEQ ID NO: 38 (Enterobacter cloacae; F124A/S40A/T41I)	4.05	–	–
Enterobacter cloacae nitroreductase (EntNFSB), wild type, SEQ ID NO: 37 (Enterobacter cloacae)	–	9.52	8.76
